Protein production data for eight sequences are collected here from a protein production outcome set (Wang et al. 2014).
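Note: failed if final PepcDB status was selected cloned or expressed and not failed if soluble or beyond.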

This data set is described as follows: label from the status in PepcDB records.
With “MPTLLNIQEFNKLNMNTILHITKRQQWEQAKNVGSYHADSLDTEGFIHSSKSIQILKVANRFFHHQTELVLLFIDSDQVKPEIRYEAADGDLFPHIYGELNLDAVYQVIDFEPGEDGLFEVPPEVVSLG”, the protein production result is reported as “failed”.
The result for “MPTPADDLVVIGKIVSVYGIRGEVKVYSFTDPLDNLLDYRRWTLRRDGEIRQAELVRGRLHGKVLAAKLKGLDDREEARTFTGYEICIPRSELPSLEEGEYYWHQLEGLKVIDQGRQLLGVIDHLLETGANDVMVVKPCAGSLDDRERLLPYTGQCVLSIDLAAGEMRVDWDADF” reads “not failed”; that for “MPTTSRPALDVKGGTSPAKEDANQEMSSVAYSNLAVKDRKAVAILHYPGVASNGTKASGAPTSSSGSPIGSPTTTPPTKPPSFNLHPAPHLLASMQLQKLNSQYQGMAAATPGQPGEAGPLQNWDFGAQAGGAESLSPSAGAQSPAIIDSDPVDEEVLMSLVVELGLDRANELPELWLGQNEFDFTADFPSSC”, “failed”.
With “MPTVAPTTVKPTTIPKETTTIAFTTDSSIEKPFGLDVSQASVGYVNIVWGRGTIDCYNVYVDGERRRTGISAQSLKLPVYTEGTHTIAITTVVGTRESEKLEVQVAITGTGEKETEPETCPEELKPQLKKNVPLRDDRIAIELNNKTNGKYSDSEIYWCILGNNENNQLCYMDKDGNMIPASESLNTVEVNGTKYANIYHTLAESDHVYAPTIRSGRMYLSYGKPVYVKFNGSTGYAGPDLNNPGDVNANTLFEFAEFTIEGKNYWGNTTRVDYFCFPMVTRLIGGSLYGGYDNVVGDIGTRDEIFTAFKNEVPNEYKSLVRDDRIIAPCKSTFNVGQDNGNYFDNYINEFWNKYANEDLRFSSESGSFVGRVVGNQMRFTREGDSTVYYVDKPNTQEVLEGKGAFDRGNGVEKAIEAQLCAAFNRGVATEPDKWYTPSQYYKNSVANFYAGFFHEHSVLGKAYGFCYDDVNDQSTLLQYNKADALVIDLKW”, the protein production result is listed as “failed”.
To “MPVAEQPYHHGSLRRVLLARAESTLEKDGVDGLSLRQLAREAGVSHAAPSKHFRDRQALLDALAESGFLRLTAALERAVEEAESHARARFAALAGAYVSFALAHRELLALMYGNKHAPGAASQVVEAGHASMDLTVRIVTEAQAAGDIGPGDASRIALVAFATFHGIATLAAGGMLDGAPVDEVVTAASDTFWRGLAQA” belongs “not failed”; to “MPVAKKYFEIRWHGRAGQGAKSASQMLAEAALEAGKYVQAFPEYGAERTGAPMRAFNRIGDEYIRVRSAVENPDVVVVIDETLLSPAIVEGLSEDGILLVNTVKDFEFVRKKTGFNGKICVVDATDIALQEIKRGIPNTPMLGALVRVTGIVPLEAIEKRIEKMFGKKFPQEVIDANKRALRRGYEEVKCSE”, “not failed”; to “MPVAVVANPKGGVGKTTLATNLAGYFAARDHAVMLGDTDRQQSSREWLALRPATARPIHTWDISADHIAKPPKGTTHVVLDTPAGLHGWRLADLIRLAGHVIVPLQPSMFDILATQAFLCKLADEKPVRHGEAKVGVVGMRVDMRTRAAEQLQRFVQGLQIPILGYLRDTQNYVQLAAHGLTLWDVAPSRVARDVEQWRGILDWMAPGGITASPDSM”, “failed”.
As for “MPVCILLLRFRDDVHNERFYTLVGIFIVGALCLMILGGTFFYIEYKRAQKQTFVMFFKGSLKGLVTTAPVTYRGVKIGEVKVIEITENKEHSKVLIPVYVQFFVERTYGFSQDPIHLLIDNGYVANITKPNLLTGVAEIELIKPTPAVKYKQTYYHSYPVFPTHNSAEKYTSMEEAFEAAKKAFEDVSELVRSKEIQDTLEAIQKVSENLGQLASSLNQDVPSVVAYLNQSLKQITSAAYSTQNLTDYLSRYPESLLRGKRLEHHHHHH”, the protein production result is recorded as “failed”.
